Values quoted from earlier work, collected in patent US20110294730A1, “METHOD OF TREATING GLAUCOMA AND INTRAOCULAR HYPERTENSION” (priority 2010, published 2011).

Test system: trabecular meshwork

B1: IL-Ia: exogenous growth factor (protein, UniProt P01583 113-271, looked up)
Interleukin-1 alpha: SAPFSFLSNVKYNFMRIIKYEFILNDALNQSIIRANDQYLTAAALHNLDEAVKFDMGAYKSSKDDAKITVILRISKTQLYVTAQDEDQPVLLKEMPEIPKTITGSETNLLFFWETHGTKNYFTSVAHPNLFIATKQDYWVCLAGGPPSITDFQILENQA
In the case of B1, the extracellular acidification is given as “significantly stimulated”.
